Molecular target: GPRC5D (MM.1R cells) (UniProt Q9NZD1)
Assay: FACS cell binding; MM.1R cells

## Fab6300
  EC50: 122 nM

From patent US20180037651A1
